T1: CD66c (Cluster of Differentiation 66c) on cells (UniProt P40199 35-320, limits assumed)
T1 construct: whole, on cells; also called CEACAM6; CEACAM 6
T1 sequence (looked up): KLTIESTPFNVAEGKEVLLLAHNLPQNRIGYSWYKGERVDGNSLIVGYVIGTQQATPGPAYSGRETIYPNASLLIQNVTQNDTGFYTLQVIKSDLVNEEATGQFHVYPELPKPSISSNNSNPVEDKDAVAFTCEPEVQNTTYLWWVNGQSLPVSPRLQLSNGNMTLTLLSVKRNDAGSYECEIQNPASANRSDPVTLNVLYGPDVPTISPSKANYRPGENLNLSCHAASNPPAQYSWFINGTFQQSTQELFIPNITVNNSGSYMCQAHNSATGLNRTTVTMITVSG

T2: Antigen CD66c (CEACAM6; Sino Biological, Inc.) (UniProt P40199 35-320)
T2 construct: Bought antigen, coated on the ELISA plate; construct not described; also called CECACAM6 (CD66c) antigen; CD66c antigen
T2 sequence (looked up): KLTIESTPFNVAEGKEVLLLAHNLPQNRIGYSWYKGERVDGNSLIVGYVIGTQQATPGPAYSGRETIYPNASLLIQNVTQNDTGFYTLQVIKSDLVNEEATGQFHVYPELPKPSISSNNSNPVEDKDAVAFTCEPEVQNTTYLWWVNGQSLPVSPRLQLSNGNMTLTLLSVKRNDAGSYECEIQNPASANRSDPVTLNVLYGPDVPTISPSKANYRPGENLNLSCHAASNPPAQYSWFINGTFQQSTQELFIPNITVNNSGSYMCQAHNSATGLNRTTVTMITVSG


Experiments:
[1] = target: T1, CD66c (Cluster of Differentiation 66c) …; experiment: flow cytometry on CD66c-positive A549 cells, FITC anti-human IgG
Protocol: Each expressed 96 recombinant humanized antibody was poured and reacted in a test tube containing the same amount […] of CD66c-positive A549 non-small-cell lung cancer cell line at 4° C. for 30 minutes, washed with PBS, and treated with FITC-conjugated goat anti-Huma IgG (DiNona Inc, Korea) was added and incubated at 4° C. for 15 minutes. After washing with PBS, the cells were analyzed with a flow cytometer (Stratedigm, S1000EXi) and the results are shown below.
Among the 96 recombinant humanized antibody candidates, eight were firstly selected based on the degree of expression, the presence of aggregation, and the degree of cell binding (Table 9 and Table 10, FIGS. 3A to 3E).

[2] = target: T2, Antigen CD66c (CEACAM6; Sino …); experiment: ELISA, CEACAM6 coated 100 ng/well, antibody at 0.17 ng/ml
Protocol: (§1) Antigen CD66c (CEACAM6; Sino Biological, Inc.) and CEACAM1 antigen (Sino Biological, Inc.) were coated on a 96-well plate at a rate of 100 ng per well and then blocked. The primary antibody was diluted 3-fold from 10 ug/ml and bound at 37° C. for 1 hour. […] goat anti-Human Ig-HRP conjugate (Jackson ImmunoResearch) as a secondary antibody was diluted 1:10,000 and incubated at 37° C. for 30 minutes. The washing was carried out at three times between each step, and the TMB reaction was performed, stopped with 1N H₂SO₄ solution at the same amount of TMB solution (100 ul) and then OD value was measured at 450 nm.
(§2) As a result of the experiment, the binding affinities to CD66c antigen of the five kinds of recombinant humanized antibodies selected from among 96 kinds of recombinant humanized antibodies are shown in FIG. 4a, Table 12, FIG. 4b and Table 13. FIG. 4a and Table 12 show the binding capacity of the antibodies to CECACAM6 CD66c) antigen, and FIG. 4b and Table 13 are the results for the CEACAM1 (CD66a) antigen.

[3] = target: T2, Antigen CD66c (CEACAM6; Sino …); experiment: ELISA, CEACAM6 coated 100 ng/well, antibody at 370.37 ng/ml
Protocol: as §1, §2

[4] = target: T2, Antigen CD66c (CEACAM6; Sino …); experiment: ELISA, CEACAM6 coated 100 ng/well, antibody at 10000.00 ng/ml
Protocol: as §1, §2

[5] = target: T2, Antigen CD66c (CEACAM6; Sino …); experiment: ELISA, CEACAM6 coated 100 ng/well, antibody at 41.15 ng/ml
Protocol: as §1

[6] = target: T2, Antigen CD66c (CEACAM6; Sino …); experiment: ELISA, CEACAM6 coated 100 ng/well, antibody at 4.57 ng/ml
Protocol: as §1, §2

[7] = target: T2, Antigen CD66c (CEACAM6; Sino …); experiment: ELISA, CEACAM6 coated 100 ng/well, antibody at 1.52 ng/ml
Protocol: as §1, §2

[8] = target: T2, Antigen CD66c (CEACAM6; Sino …); experiment: ELISA, CEACAM6 coated 100 ng/well, antibody at 3333.33 ng/ml
Protocol: as §1, §2

[9] = target: T2, Antigen CD66c (CEACAM6; Sino …); experiment: ELISA, CEACAM6 coated 100 ng/well, antibody at 0.51 ng/ml
Protocol: as §1, §2

[10] = target: T2, Antigen CD66c (CEACAM6; Sino …); experiment: ELISA, CEACAM6 coated 100 ng/well, antibody at 1111.11 ng/ml
Protocol: as §1, §2

[11] = target: T2, Antigen CD66c (CEACAM6; Sino …); experiment: ELISA, CEACAM6 coated 100 ng/well, antibody at 13.72 ng/ml
Protocol: as §1, §2

[12] = target: T2, Antigen CD66c (CEACAM6; Sino …); experiment: ELISA, CEACAM6 coated 100 ng/well, antibody at 123.46 ng/ml
Protocol: as §1, §2

Binder | % (% gated × mean), against the chimeric antibody [1] | % gated [1] | Mean (fluorescence) [1] | OD 450 nm [2] | OD 450 nm [3] | OD 450 nm [4] | OD 450 nm [5] | OD 450 nm [6] | OD 450 nm [7] | OD 450 nm [8] | OD 450 nm [9] | OD 450 nm [10] | OD 450 nm [11] | OD 450 nm [12]
recombinant humanized anti-CD66c antibody Protein ID 3004 (Vk7 + VH5) (antibody, human IgG1, V domains shown, also called #41) VH: QVQLVQSGAEVKKPGASVKISCKASGYSFTDYTMNWVRQAHGQNLEWIGLINPFHGGTVSNQRFKVKATLTVDVSTNTAYMELSRLRSDDTAVYYCVRGDPVRHYYALAYWGQGTLVTVSS VL: DIQMTQSPSTLSASVGDRVTITCGASENVYGTLNWYQRKPGKAPKLLIYGATNLADGVPSRFSGSGSGTEYTLTISSLQPDDFATYYCQNVLSAPYTFGGGTKLEIK | 85% | 71% | 541 |  |  |  |  |  |  |  |  |  |  | 
recombinant humanized anti-CD66c antibody Protein ID 3010 (Vk7 + VH7) (antibody, human IgG1, V domains shown, also called #45) VH: QVQLVQSGAEVKKPGASMKISCKASGYSFTDYTMNWVRQAPGQGLEWIGLINPFHGGTVSNQRFKVKATLTVDVSTNTAYMELSRLRSDDTAVYYCVRGDPVRHYYALAYWGQGTLVTVSS VL: DIQMTQSPSTLSASVGDRVTITCGASENVYGTLNWYQRKPGKAPKLLIYGATNLADGVPSRFSGSGSGTEYTLTISSLQPDDFATYYCQNVLSAPYTFGGGTKLEIK | 85.8% | 70% | 554 |  |  |  |  |  |  |  |  |  |  | 

Further lines, results first:

% (% gated × mean), against the chimeric antibody [1] | % gated [1] | Mean (fluorescence) [1] | OD 450 nm [2] | OD 450 nm [3] | OD 450 nm [4] | OD 450 nm [5] | OD 450 nm [6] | OD 450 nm [7] | OD 450 nm [8] | OD 450 nm [9] | OD 450 nm [10] | OD 450 nm [11] | OD 450 nm [12] | Binder
86.9% | 70% | 561 | 0.68 OD 450 nm | 3.23 OD 450 nm | 3.13 OD 450 nm | 2.45 OD 450 nm | 1.32 OD 450 nm | 0.95 OD 450 nm | 3.26 OD 450 nm | 0.8 OD 450 nm | 3.34 OD 450 nm | 1.77 OD 450 nm | 3.04 OD 450 nm | recombinant humanized anti-CD66c antibody Protein ID 3019 (Vk7 + VH10) (antibody, human IgG1, V domains shown, also called hu 3019; #51) VH: QVQLVQSGAEVKKPGASVKVSCKASGYSFTDYTMNWVKQAPGQNLEWIGLINPFHGGTVSNQRFKVKATMTVDVSTNTAYMELSRLRSDDTAVYYCVRGDPVRHYYALAYWGQGTLVTVSS VL: DIQMTQSPSTLSASVGDRVTITCGASENVYGTLNWYQRKPGKAPKLLIYGATNLADGVPSRFSGSGSGTEYTLTISSLQPDDFATYYCQNVLSAPYTFGGGTKLEIK
82.2% | 71% | 523 |  |  |  |  |  |  |  |  |  |  |  | recombinant humanized anti-CD66c antibody Protein ID 3046 (Vk8 + VH7) (antibody, human IgG1, V domains shown, also called #74) VH: QVQLVQSGAEVKKPGASMKISCKASGYSFTDYTMNWVRQAPGQGLEWIGLINPFHGGTVSNQRFKVKATLTVDVSTNTAYMELSRLRSDDTAVYYCVRGDPVRHYYALAYWGQGTLVTVSS VL: DIQMTQSPSTLSASVGDRVTITCRASENVYGTLNWYQRKPGKAPKLLIYGATNLADGMPSRFSGSGSGTEYTLTISSLQPDDFATYYCQNVLSAPYTFGGGTKLEIK
